Test [1] has as its target LHD101B-αLux. In words: split reporter (BiFC, NanoBiT); time-course luminescence; protein-linker-RNA conjugate of A and protein B preincubated until a baseline signal, then RNase A added manually after 30 min; S/B = maximum signal after RNA cleavage divided by the baseline signal.
Test [2] addresses LHD101B-αLux. In words: split reporter (BiFC, NanoBiT); 96-well plate; 2.5 nM BC10 and 2.5 nM B protein with preincubated 100 nM Cas13 and 50 nM crRNA1 in 1x HBS-EP+ buffer, 50 μM LuxSit Pro Substrate; target RNA added after 5 min of baseline; 1 h at room temperature.
Test [3] deals with LHD101B-αLux. In words: split reporter (BiFC, NanoBiT); protein-linker conjugates of protein A with protein B in solution; luminescence relative to the naked cysteine mutant (Figure 2c).

Substitutions are numbered along the chain they refer to. Numbers in names are those of the source.

B1: LHD101A-βit I61C-L1-RNA protein-linker-RNA conjugate (designed binder)
chain: SELAVVAAIISAVARMGVKMELHPSGNEVKVVIKGLHIKQQRQLYRDVREAAKKAGVEVECEVEGDTVTIVVRG
modifications: here or on the partner: cysteine 61 joined by thiol-maleimide Michael addition to linker L1, whose DBCO is joined by SPAAC to the azide-functionalised 17mer RNA conjRNA1
As to B1, the S/B change (maximum signal after RNA cleavage by RNase A divided by the baseline signal with intact RNA) with LHD101B-αLux [1] is above 1.3.

B2: LHD101A-βit E62C-L2-RNA protein-linker-RNA conjugate (designed binder)
chain: B1 chain with C61I, E62C
modifications: here or on the partner: cysteine 62 joined by thiol-maleimide Michael addition to linker L2, whose DBCO is joined by SPAAC to the azide-functionalised 17mer RNA conjRNA1
Regarding B2, in the test with LHD101B-αLux [1], the S/B change (maximum signal after RNA cleavage by RNase A divided by the baseline signal with intact RNA) stood at 1.89.

B3: LHD101A-βit E62C-L1-RNA protein-linker-RNA conjugate (designed binder)
chain: B1 chain with C61I, E62C
modifications: here or on the partner: cysteine 62 joined by thiol-maleimide Michael addition to linker L1, whose DBCO is joined by SPAAC to the azide-functionalised 17mer RNA conjRNA1
With B3, in the test with LHD101B-αLux [2], the maximum S/B ratio (signal after RNA cleavage by activated Cas13 divided by the baseline signal with intact RNA) was 1.6. In the test with LHD101B-αLux [1], this molecule gave a S/B change (maximum signal after RNA cleavage by RNase A divided by the baseline signal with intact RNA) of 2 and a maximum luminescence signal after RNA cleavage by RNase A of 100000 RLU.

B4: LHD101A-βit G65C-L2-RNA protein-linker-RNA conjugate (designed binder)
chain: B1 chain with C61I, G65C
modifications: here or on the partner: cysteine 65 joined by thiol-maleimide Michael addition to linker L2, whose DBCO is joined by SPAAC to the azide-functionalised 17mer RNA conjRNA1
B4: the S/B change (maximum signal after RNA cleavage by RNase A divided by the baseline signal with intact RNA) in the test with LHD101B-αLux [1] is above 1.3.

B5: LHD101A-βit I61C-L2-RNA protein-linker-RNA conjugate (designed binder)
chain: B1 chain
modifications: here or on the partner: cysteine 61 joined by thiol-maleimide Michael addition to linker L2, whose DBCO is joined by SPAAC to the azide-functionalised 17mer RNA conjRNA1
The molecule B5 came in with a S/B change (maximum signal after RNA cleavage by RNase A divided by the baseline signal with intact RNA) with LHD101B-αLux [1] above 1.3.

B6: LHD101A-βit E60C-L1 protein-linker conjugate (designed binder)
chain: B1 chain with E60C, C61I
modifications: here or on the partner: cysteine 60 joined by thiol-maleimide Michael addition to linker L1 (maleimide-DBCO, shorter, more rigid)
As to B6, the luminescence signal relative to the naked cysteine mutant with LHD101B-αLux [3] is above 20%.

B7: LHD101A-βit E60C-L2 protein-linker conjugate (designed binder)
chain: B1 chain with E60C, C61I
modifications: here or on the partner: cysteine 60 joined by thiol-maleimide Michael addition to linker L2 (maleimide-DBCO, longer, more flexible)
B7: the luminescence signal relative to the naked cysteine mutant with LHD101B-αLux [3] was above 20%.

B8: LHD101A-βit G65C-L1-RNA protein-linker-RNA conjugate (designed binder)
chain: B1 chain with C61I, G65C
modifications: here or on the partner: cysteine 65 joined by thiol-maleimide Michael addition to linker L1, whose DBCO is joined by SPAAC to the azide-functionalised 17mer RNA conjRNA1
In the test with LHD101B-αLux [1], B8 yielded a S/B change (maximum signal after RNA cleavage by RNase A divided by the baseline signal with intact RNA) above 1.3.

(Values after publication PMC12381745.)
